Experimental data taken from publication doi:10.1101/2023.06.15.545202.

How the values were obtained:
[1] = biological target: PAN domain of SpG-type LecRLK-2 (amino acids 322-400), secreted His-Avi-sfGFP fusion (Salix purpurea); assay: SEC
[2] = biological target: PAN domain of SpG-type LecRLK-2R (amino acids 322-400), secreted His-Avi-sfGFP fusion (Salix purpurea); assay: SEC

Row | percent in higher-order complex [1] | percent monomeric [1] | percent monomeric [2] | Substance
1 | 48.2% | 51.8% |  | PAN domain of SpG-type LecRLK-2 (amino acids 322-400), secreted His-Avi-sfGFP fusion (domain or fragment)
2 |  |  | 26.4% | PAN domain of SpG-type LecRLK-2R (amino acids 322-400), secreted His-Avi-sfGFP fusion (domain or fragment)
